Assay results as given in US6432702 (NEW YORK UNIVERSITY, dated 2002).

Assays:
[1] = target: T1, FGF receptor-1 (flg) (UniProt P16092 22-822, limits assumed); test: competition with 125I-bFGF on CHO 4-1 cells expressing FGF receptor-1
T1 construct: whole, on cells; also called flg receptor; CHO 4-1 cells

[2] = target: T1, FGF receptor-1 (flg); test: Scatchard analysis, 125I-labeled ligand on CHO 4-1 cells expressing FGF receptor-1, 4 C
Experimental: Scatchard analysis of the binding of K-FGF and K-FGF-140 was performed on CHO 4-1 cells expressing the FGF receptor-1 as follows. Cells at 4.8×10^5/35mm dish were incubated at 4° C. with DMEM containing 0.15% gelatin, […].
In FIG. 7, Scatchard analysis of binding to high affinity receptors gave a straight line, indicating a single class of binding sites.

[3] = target: T2, FGF receptor-2 (bek) (UniProt P21803 22-821, limits assumed); test: competition with 125I-bFGF on CHO 3-7.5 cells expressing FGF receptor-2
T2 construct: whole, on cells; also called CHO 3-7.5 cells
T2 sequence (P21803 22-821 limits assumed): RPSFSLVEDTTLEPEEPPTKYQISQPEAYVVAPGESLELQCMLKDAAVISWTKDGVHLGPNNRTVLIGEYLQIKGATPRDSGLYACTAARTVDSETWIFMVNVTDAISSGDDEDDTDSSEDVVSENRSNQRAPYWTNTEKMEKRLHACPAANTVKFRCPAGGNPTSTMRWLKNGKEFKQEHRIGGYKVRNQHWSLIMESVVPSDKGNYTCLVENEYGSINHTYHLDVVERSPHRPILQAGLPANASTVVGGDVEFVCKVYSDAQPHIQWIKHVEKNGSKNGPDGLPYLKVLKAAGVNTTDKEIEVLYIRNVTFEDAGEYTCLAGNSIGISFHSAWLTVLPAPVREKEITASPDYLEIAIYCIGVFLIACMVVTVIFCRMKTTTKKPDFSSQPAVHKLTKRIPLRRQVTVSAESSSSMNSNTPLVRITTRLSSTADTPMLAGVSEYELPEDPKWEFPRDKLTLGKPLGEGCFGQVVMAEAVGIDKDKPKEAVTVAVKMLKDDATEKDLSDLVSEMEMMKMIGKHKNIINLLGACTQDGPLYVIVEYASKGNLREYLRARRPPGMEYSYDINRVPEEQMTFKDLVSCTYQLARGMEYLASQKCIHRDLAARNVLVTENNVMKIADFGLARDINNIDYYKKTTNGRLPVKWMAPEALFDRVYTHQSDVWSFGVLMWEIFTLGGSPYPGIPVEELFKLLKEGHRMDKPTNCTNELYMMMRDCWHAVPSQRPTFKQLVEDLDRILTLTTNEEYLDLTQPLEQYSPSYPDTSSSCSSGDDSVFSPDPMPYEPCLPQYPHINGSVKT

T1 sequence (P16092 22-822 limits assumed): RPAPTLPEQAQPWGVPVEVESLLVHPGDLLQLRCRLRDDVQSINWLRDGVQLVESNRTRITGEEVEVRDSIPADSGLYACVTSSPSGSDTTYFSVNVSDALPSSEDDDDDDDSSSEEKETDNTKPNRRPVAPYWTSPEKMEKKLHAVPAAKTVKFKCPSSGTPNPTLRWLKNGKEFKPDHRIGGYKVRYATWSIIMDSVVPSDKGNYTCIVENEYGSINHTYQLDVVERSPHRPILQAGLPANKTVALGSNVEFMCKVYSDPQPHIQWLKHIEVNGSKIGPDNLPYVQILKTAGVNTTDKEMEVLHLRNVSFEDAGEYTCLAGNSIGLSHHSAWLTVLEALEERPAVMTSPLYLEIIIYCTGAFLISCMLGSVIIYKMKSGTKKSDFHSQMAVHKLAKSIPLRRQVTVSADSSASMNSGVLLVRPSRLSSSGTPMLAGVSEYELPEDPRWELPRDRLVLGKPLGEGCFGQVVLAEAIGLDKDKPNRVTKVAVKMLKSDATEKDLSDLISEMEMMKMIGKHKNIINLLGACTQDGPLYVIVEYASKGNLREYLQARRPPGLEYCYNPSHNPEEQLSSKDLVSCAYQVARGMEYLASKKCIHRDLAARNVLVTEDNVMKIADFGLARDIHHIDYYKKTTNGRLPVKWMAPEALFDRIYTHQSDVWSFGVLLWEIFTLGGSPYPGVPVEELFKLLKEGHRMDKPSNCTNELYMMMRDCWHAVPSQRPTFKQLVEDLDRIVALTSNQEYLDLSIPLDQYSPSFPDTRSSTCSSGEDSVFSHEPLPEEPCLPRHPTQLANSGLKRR

Binder | fold more competitor needed than bFGF or K-FGF-140 [1] [fold] | Kd [2] [nM] | fold higher affinity than bFGF or full-length K-FGF [3] [fold] | fold higher affinity than full-length K-FGF [2] [fold]
K-FGF (full-length mature human growth factor) (ligand, also called full-length K-FGF; FGF-4) APTAPNGTLEAELERRWESLVALSLARLPVAAQPKEAAVQSGAGDYLLGIKRLRRLYCNVGIGFHLQALPDGRIGGAHADTRDSLLELSPVERGVVSIFGVASRFFVAMSSKGKLYGSPFFTDECTFKEILLPNNYNAYESYKYPGMFIALSKNGKTKKGNRVSPTMKVTHFLPRL | ~8 | ~0.285 | – | –
K-FGF-140 (truncated K-FGF) (ligand, Unglycosylated, 140 residues, about 14,000 Daltons; also called truncated mammalian growth factor; truncated protein) AAVQSGAGDYLLGIKRLRRLYCNVGIGFHLQALPDGRIGGAHADTRDSLLELSPVERGVVSIFGVASRFFVAMSSKGKLYGSPFFTDECTFKEILLPNNYNAYESYKYPGMFIALSKNGKTKKGNRVSPTMKVTHFLPRL | – | ~0.095 | ~3 | ~3
